Target: EBOV GP on EBOV-eGFP-Mayinga authentic virus (Ebola virus (EBOV), Mayinga) (UniProt Q05320)
Assay: cell-based or functional assay

Chain of EBOV GP on EBOV-eGFP-Mayinga authentic virus (Ebola virus (EBOV), Mayinga) (Q05320 33-676 limits assumed): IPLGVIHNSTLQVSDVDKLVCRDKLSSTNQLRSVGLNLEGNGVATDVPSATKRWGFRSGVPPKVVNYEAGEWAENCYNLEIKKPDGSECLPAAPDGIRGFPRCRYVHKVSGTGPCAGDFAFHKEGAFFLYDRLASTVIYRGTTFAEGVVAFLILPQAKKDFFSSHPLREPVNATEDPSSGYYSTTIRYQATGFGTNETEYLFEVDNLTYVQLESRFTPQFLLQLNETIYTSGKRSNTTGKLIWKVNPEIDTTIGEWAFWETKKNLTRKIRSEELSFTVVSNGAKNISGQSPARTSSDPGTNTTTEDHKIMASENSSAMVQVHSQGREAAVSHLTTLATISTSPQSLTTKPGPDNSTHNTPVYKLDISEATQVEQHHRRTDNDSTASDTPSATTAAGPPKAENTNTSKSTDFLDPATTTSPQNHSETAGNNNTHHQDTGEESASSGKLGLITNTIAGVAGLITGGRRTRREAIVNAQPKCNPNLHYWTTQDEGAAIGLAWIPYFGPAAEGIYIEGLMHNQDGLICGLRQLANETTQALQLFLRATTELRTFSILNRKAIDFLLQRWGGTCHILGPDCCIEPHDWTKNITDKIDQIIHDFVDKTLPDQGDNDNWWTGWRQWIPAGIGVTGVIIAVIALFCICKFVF

CA45 (antibody)
IC50, EBOV-eGFP-Mayinga authentic virus neutralization test: 8.51 µg/mL
IC90, EBOV-eGFP-Mayinga authentic virus neutralization test: 13 µg/mL
